Laboratory results as given in patent US20160137744A1 (ONCOMED PHARMACEUTICALS, published 2016).
Read-outs that look alike come from different tables or passages of the source. Blank lines part the entries; values can stand above or below the molecule they belong to.

Columns and labels:
[1] = biological target: full-length human MET (FL-MET) on cells (human) (UniProt P08581); assay: FACS competition, biotin-HGF on MET-transfected HEK-293T cells; antibody at 0.16 µg/ml
[2] = biological target: full-length human MET (FL-MET) on cells (human) (UniProt P08581); assay: FACS blocking assay: MET-transfected HEK-293T cells pre-incubated with the agent, then biotin-HGF (blocked ligand) + PE-streptavidin; inhibition versus the average of the two positive controls
[3] = biological target: T1, human MET (soluble analyte in Biacore) (human, UniProt P08581 25-932); assay: SPR (Biacore 2000), antibody captured by anti-human antibody, human MET injected
Description: (§1) The KD of monovalent version of 73R009, monovalent anti-MET antibody 5D5, and anti-MET/FZD8-Fc bispecific agent 315B6 were determined using a Biacore 2000 system from Biacore LifeSciences (GE Healthcare). A goat anti-human antibody (Invitrogen H10500) was coupled to a carboxymethyl-dextran (CM5) SPR chip using standard amine-based chemistry (NHS/EDC) and blocked with ethanolamine. Antibodies were diluted to a concentration of 10 μg/ml in HBS-P-BSA (0.01M HEPES pH7.4, 0.15M NaCl, 0.005% v/v Polysorbate 20, 10 μg/ml BSA) and captured onto the chip via the anti-human antibody. Human MET was serially diluted 2-fold from 300 nM to 37.5 nM in HBS-P-BSA and injected sequentially over the captured anti-MET antibodies. MET association and dissociation was measured at each concentration. After each antigen injection 5 μl of 100 mM H₃PO₄ was injected to remove the antigen-antibody complex and a subsequent injection performed. Kinetic data were collected over time and were fit using the simultaneous global fit equation to yield affinity constants (KD values) for each agent.
(§2) In addition, the bispecific agent 315B6 appeared to have stronger affinity for human MET than anti-MET antibody 5D5.

[4] = biological target: full-length human MET (FL-MET) on cells (human) (UniProt P08581); assay: FACS blocking assay: MET-transfected HEK-293T cells pre-incubated with the agent, then biotin-HGF (blocked ligand) + PE-streptavidin; % cells in gate P2
[5] = biological target: full-length human MET (FL-MET) on cells (human) (UniProt P08581); assay: FACS competition, biotin-HGF on MET-transfected HEK-293T cells; antibody at 10 µg/ml
[6] = biological target: T1, human MET (soluble analyte in Biacore); assay: SPR (Biacore 2000), agent captured by anti-human antibody, human MET injected
Description: as §1, §2

[7] = biological target: full-length human MET (FL-MET) on cells (human) (UniProt P08581); assay: FACS blocking assay: MET-transfected HEK-293T cells pre-incubated with the agent, then biotin-HGF (blocked ligand) + PE-streptavidin; % cells in gate P2; remark: listed apart in the source
[8] = biological target: full-length human MET (FL-MET) on cells (human) (UniProt P08581); assay: FACS blocking assay: MET-transfected HEK-293T cells pre-incubated with the agent, then biotin-HGF (blocked ligand) + PE-streptavidin; inhibition versus the average of the two positive controls; remark: listed apart in the source

T1 sequence (P08581 25-932 limits assumed): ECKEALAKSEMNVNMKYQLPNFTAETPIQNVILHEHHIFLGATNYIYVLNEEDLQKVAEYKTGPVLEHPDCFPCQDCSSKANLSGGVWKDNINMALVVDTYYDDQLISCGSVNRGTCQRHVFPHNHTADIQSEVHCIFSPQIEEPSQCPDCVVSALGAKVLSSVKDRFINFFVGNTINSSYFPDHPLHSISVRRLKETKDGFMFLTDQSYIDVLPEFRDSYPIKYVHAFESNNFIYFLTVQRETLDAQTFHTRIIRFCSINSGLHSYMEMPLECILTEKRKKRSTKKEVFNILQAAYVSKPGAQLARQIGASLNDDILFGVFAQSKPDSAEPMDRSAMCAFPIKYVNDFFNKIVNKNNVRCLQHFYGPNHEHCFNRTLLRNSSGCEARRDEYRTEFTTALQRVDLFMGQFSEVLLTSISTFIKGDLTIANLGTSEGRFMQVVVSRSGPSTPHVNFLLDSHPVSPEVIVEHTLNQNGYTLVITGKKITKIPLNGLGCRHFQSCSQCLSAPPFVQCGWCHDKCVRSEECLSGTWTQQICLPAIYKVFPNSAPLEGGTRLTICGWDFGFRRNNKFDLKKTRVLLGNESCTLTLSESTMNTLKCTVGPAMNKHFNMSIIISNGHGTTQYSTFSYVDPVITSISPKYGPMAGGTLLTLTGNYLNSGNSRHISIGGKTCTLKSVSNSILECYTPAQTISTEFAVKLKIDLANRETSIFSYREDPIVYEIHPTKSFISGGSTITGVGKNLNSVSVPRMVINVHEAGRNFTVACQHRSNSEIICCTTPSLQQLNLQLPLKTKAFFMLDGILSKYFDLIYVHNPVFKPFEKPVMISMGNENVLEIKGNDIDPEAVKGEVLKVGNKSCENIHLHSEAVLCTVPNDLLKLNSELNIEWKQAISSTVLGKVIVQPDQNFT
full-length human MET (FL-MET) on cells (human), sequence (P08581 25-1390 limits assumed): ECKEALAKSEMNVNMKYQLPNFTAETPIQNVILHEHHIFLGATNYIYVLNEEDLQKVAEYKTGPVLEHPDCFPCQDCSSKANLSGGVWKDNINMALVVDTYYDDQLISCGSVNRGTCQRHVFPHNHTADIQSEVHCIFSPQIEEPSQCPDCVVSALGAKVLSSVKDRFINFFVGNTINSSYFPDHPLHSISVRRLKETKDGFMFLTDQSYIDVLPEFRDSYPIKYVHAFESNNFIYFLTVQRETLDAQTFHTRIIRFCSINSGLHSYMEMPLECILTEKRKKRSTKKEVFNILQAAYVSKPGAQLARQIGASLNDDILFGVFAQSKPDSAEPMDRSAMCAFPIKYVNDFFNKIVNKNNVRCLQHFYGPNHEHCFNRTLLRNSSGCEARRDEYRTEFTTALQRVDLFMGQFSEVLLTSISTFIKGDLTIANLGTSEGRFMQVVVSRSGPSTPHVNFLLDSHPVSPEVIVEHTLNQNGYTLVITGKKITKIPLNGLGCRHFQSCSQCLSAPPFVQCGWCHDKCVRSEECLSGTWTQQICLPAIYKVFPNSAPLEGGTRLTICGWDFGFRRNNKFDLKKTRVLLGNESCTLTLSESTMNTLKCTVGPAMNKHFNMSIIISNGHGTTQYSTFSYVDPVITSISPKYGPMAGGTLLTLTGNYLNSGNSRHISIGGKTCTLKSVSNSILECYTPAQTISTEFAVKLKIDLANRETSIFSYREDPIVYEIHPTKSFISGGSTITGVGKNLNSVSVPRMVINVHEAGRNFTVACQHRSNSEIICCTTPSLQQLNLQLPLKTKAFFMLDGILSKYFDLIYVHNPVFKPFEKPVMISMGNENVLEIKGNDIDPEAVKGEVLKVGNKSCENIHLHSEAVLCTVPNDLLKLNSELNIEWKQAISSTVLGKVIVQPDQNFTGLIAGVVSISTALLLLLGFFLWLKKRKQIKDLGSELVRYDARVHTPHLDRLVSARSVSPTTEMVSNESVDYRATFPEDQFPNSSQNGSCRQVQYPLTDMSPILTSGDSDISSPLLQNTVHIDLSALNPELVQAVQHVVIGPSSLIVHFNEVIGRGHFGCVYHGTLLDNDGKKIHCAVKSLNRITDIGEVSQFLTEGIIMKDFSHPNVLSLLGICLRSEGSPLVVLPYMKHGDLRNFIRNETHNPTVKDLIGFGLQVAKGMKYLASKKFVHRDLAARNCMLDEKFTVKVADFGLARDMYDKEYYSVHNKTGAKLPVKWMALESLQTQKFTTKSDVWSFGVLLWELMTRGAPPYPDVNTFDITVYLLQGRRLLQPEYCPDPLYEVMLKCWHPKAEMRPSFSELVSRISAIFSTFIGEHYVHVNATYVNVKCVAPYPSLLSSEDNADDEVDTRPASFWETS

percent reduction of HGF binding to MET [1]: 28% | % Inhibition of HGF binding at 0.3 ug/ml agent [2]: 47% | % Inhibition of HGF binding at 0.625 ug/ml agent [2]: 40% | % Inhibition of HGF binding at 1.25 ug/ml agent [2]: 57% | % Inhibition of HGF binding at 2.5 ug/ml agent [2]: 52% | % Inhibition of HGF binding at 5 ug/ml agent [2]: 67% | Kd [3]: 7.2 nM | % Binding of HGF at 0.16 ug/ml agent [4]: 14.3% | % Binding of HGF at 0.3 ug/ml agent [4]: 10.6% | % Binding of HGF at 0.625 ug/ml agent [4]: 12% | % Binding of HGF at 1.25 ug/ml agent [4]: 8.54% | % Binding of HGF at 2.5 ug/ml agent [4]: 9.61% | % Binding of HGF at 5 ug/ml agent [4]: 6.67% | % Binding of HGF at 10 ug/ml agent [4]: 6.31% | percent reduction of HGF binding to MET [5]: 70%
Molecule: monovalent anti-MET antibody 5D5

Kd [6]: 1.8 nM
B1: anti-MET/FZD8-Fc bispecific agent 315B6 (bispecific antibody, human IgG2, kappa)
heavy: QVQLQESGPGLVKPSETLSLTCTVTGTTITASYAWSWIRQPPGKGLEWMGYISYSGGTDYNPSLKSRITISRDTFKNQFSLKLSSVTAADTATYYCARKGAYWGQGTLVTVSSASTKGPSVFPLAPCSRSTSESTAALGCLVKDYFPEPVTVSWNSGALTSGVHTFPAVLQSSGLYSLSSVVTVPSSNFGTQTYTCNVDHKPSNTKVDKTVERKCCVECPPCPAPPVAGPSVFLFPPKPKDTLMISRTPEVTCVVVDVSHEDPEVQFNWYVDGVEVHNAKTKPREEQFNSTFRVVSVLTVVHQDWLNGKEYKCKVSNKGLPAPIEKTISKTKGQPREPQVYTLPPSREKMTKNQVSLTCLVKGFYPSDIAVEWESNGQPENNYKTTPPMLKSDGSFFLYSKLTVDKSRWQQGNVFSCSVMHEALHNHYTQKSLSLSPGK
light: DIVLTQSPATLSASPGEKVTLTCSASSSVSSSYLYWYQQKPGQAPKLLIYSTSNLASGVPARFSGSGSGTSYSLTISSLEPEDFATYYCHQWSSYPYTFGGGTKLEIKRTVAAPSVFIFPPSDEQLKSGTASVVCLLNNFYPREAKVQWKVDNALQSGNSQESVTEQDSKDSTYSLSSTLTLSKADYEKHKVYACEVTHQGLSSPVTKSFNRGEC
chain: ASAKELACQEITVPLCKGIGYNYTYMPNQFNHDTQDEAGLEVHQFWPLVEIQCSPDLKFFLCSMYTPICLEDYKKPLPPCRSVCERAKAGCAPLMRQYGFAWPDRMRCDRLPEQGNPDTLCMDYNRTDLTTTKVDKTVERKSCVECPPCPAPPVAGPSVFLFPPKPKDTLMISRTPEVTCVVVDVSHEDPEVQFNWYVDGVEVHNAKTKPREEQFNSTFRVVSVLTVVHQDWLNGKEYKCKVSNKGLPAPIEKTISKTKGQPREPQVYTLPPSREEMTKNQVSLTCLVEGFYPSDIAVEWESNGQPENNYKTTPPMLDSDGSFFLYSELTVDKSRWQQGNVFSCSVMHEALHNHYTQKSLSLSPGK
notes: Heterodimer of a monovalent 73R009 arm (heavy + light) and a FZD8 Fri-Fc fusion arm; plasmids ATCC PTA-13609, PTA-13610, PTA-13611; also called bispecific anti-MET/FZD8-Fc agent

percent reduction of HGF binding to MET [1]: 56% | Kd [3]: 1.4 nM | % Binding of HGF at 0.16 ug/ml agent [7]: 8.72% | % Binding of HGF at 0.3 ug/ml agent [7]: 9.71% | % Binding of HGF at 0.625 ug/ml agent [7]: 8.03% | % Binding of HGF at 1.25 ug/ml agent [7]: 7.7% | % Binding of HGF at 2.5 ug/ml agent [7]: 7.44% | % Binding of HGF at 5 ug/ml agent [7]: 7.77% | % Binding of HGF at 10 ug/ml agent [7]: 5.51% | % Inhibition of HGF binding at 0.3 ug/ml agent [8]: 52% | % Inhibition of HGF binding at 0.625 ug/ml agent [8]: 60% | % Inhibition of HGF binding at 1.25 ug/ml agent [8]: 62% | % Inhibition of HGF binding at 2.5 ug/ml agent [8]: 63% | % Inhibition of HGF binding at 5 ug/ml agent [8]: 61% | percent reduction of HGF binding to MET [5]: 72%
B2: monovalent version of anti-MET antibody 73R009 (antibody, part only; not given: monovalent constant regions and partner arm, V domains shown, not shown: another chain or arm of the molecule; a dimerising Fc or GST)
VH: QVQLQESGPGLVKPSETLSLTCTVTGTTITASYAWSWIRQPPGKGLEWMGYISYSGGTDYNPSLKSRITISRDTFKNQFSLKLSSVTAADTATYYCARKGAYWGQGTLVTVSS
VL: DIVLTQSPATLSASPGEKVTLTCSASSSVSSSYLYWYQQKPGQAPKLLIYSTSNLASGVPARFSGSGSGTSYSLTISSLEPEDFATYYCHQWSSYPYTFGGGTKLEIK

Kd [3]: 1.1 nM
B3: antibody 73R009 (bivalent "parental" antibody) (antibody, human IgG2, kappa, V domains shown)
VH: QVQLQESGPGLVKPSETLSLTCTVTGTTITASYAWSWIRQPPGKGLEWMGYISYSGGTDYNPSLKSRITISRDTFKNQFSLKLSSVTAADTATYYCARKGAYWGQGTLVTVSS
VL: DIVLTQSPATLSASPGEKVTLTCSASSSVSSSYLYWYQQKPGQAPKLLIYSTSNLASGVPARFSGSGSGTSYSLTISSLEPEDFATYYCHQWSSYPYTFGGGTKLEIKR
notes: Humanized, bivalent; also called humanized anti-MET monoclonal antibody
